Patent publication US20120039865A1, “IDENTIFICATION OF SORTILIN AS A NEURONAL RECEPTOR FOR THE FRONTOTEMPORAL DEMENTIA PROTEIN, PROGRANULIN” (Yale University, priority 2008, published 2012)
“Also recorded” adds a separate entry of the source.

T1: sortilin-1 (Sort1; PGRN-R) (Mus musculus, UniProt Q6PHU5)
T1 construct: host or cells: COS-7 (ATCC No. CRL-1651)
T1 sequence (Q6PHU5 74-825): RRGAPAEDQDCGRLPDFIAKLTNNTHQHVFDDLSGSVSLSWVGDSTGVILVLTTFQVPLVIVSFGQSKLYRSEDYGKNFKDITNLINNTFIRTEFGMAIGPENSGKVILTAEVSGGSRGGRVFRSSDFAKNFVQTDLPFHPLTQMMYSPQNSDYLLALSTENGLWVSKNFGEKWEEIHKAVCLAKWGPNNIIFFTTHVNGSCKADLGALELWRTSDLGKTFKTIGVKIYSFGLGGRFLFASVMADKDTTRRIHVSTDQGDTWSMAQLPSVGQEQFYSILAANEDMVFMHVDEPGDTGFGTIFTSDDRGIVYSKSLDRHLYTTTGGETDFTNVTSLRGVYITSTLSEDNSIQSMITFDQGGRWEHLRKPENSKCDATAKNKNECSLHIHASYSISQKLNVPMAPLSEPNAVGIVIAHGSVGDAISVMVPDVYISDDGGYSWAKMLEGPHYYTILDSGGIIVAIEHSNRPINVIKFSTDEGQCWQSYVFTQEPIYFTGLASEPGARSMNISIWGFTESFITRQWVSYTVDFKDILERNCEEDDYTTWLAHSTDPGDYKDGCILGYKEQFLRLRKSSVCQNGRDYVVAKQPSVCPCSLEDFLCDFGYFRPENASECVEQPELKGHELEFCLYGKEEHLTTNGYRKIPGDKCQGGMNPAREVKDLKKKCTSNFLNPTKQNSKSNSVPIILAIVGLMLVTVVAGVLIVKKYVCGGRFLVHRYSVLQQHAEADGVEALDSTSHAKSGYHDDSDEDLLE

T2: sortilin (Homo sapiens, UniProt Q99523)
T2 sequence (Q99523 78-831): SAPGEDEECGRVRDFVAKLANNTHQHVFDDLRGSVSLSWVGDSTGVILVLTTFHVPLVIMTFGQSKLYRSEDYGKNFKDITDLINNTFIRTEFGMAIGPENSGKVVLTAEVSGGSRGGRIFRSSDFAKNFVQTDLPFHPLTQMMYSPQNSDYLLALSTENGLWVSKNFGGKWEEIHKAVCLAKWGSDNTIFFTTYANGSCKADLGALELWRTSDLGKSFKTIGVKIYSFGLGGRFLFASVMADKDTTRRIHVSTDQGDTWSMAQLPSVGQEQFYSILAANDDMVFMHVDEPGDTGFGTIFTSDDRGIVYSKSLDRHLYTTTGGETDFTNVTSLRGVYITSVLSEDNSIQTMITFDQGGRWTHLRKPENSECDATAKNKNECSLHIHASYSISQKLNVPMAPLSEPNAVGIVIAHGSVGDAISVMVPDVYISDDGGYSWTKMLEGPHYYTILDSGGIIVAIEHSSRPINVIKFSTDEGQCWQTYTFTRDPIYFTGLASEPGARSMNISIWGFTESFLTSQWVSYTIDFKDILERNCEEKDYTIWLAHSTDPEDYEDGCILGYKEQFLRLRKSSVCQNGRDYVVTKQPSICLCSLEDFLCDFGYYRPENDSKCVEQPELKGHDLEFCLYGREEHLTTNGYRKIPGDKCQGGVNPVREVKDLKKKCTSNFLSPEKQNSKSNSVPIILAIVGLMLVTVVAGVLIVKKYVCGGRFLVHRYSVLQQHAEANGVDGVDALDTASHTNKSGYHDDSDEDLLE

T3: Sort1 (Mus musculus, UniProt Q6PHU5)
T3 construct: Brain lysate was prepared from mouse brain by homogenization in RIPA buffer; from tissue; host or cells: mouse brain lysate (RIPA buffer)
T3 sequence (Q6PHU5 74-825): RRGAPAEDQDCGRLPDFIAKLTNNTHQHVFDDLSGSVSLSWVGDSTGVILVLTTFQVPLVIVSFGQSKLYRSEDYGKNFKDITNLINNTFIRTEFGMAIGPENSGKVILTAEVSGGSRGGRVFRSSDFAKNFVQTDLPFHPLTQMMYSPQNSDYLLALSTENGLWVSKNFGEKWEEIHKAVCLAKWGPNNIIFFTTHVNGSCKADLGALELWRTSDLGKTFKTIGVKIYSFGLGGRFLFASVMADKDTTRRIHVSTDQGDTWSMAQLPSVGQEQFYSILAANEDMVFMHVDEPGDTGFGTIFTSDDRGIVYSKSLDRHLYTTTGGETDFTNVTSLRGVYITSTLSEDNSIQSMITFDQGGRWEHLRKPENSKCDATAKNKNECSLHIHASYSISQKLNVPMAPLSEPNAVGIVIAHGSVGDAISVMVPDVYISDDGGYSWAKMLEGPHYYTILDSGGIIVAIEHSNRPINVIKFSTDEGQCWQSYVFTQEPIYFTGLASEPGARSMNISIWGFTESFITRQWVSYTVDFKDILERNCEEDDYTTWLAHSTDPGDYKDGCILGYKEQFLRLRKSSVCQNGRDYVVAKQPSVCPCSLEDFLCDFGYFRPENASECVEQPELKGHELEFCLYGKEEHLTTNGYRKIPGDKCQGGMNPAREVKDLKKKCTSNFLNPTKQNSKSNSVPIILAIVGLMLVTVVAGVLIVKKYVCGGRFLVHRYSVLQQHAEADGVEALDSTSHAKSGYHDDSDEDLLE


Tests used:
[1] = biological target: Rat (Sprague-Dawley) cortical neurons; assay: AP-tagged ligand binding to cultured rat cortical neurons; details: saturation analysis, FIG. 1D; read-out: affinity of neuronal binding sites for PGRN
Procedure: (§1) Rat (Sprague-Dawley) cortical neurons were isolated from E18 embryos and cultured in vitro for 3-21 days. Cultures were maintained in Neurobasal-A medium supplemented with B27, GLUTAMAX™ (2 mM), sodium pyruvate (1 mM), penicillin, and streptomycin. The binding of 10 nM AP-PGRN or 10 nM AP was detected as a dark reaction product produced by alkaline phosphatase (AP). Binding was measured as follows. The AP tagged ligand (in NBA) was incubated with the cortical neurons for 1 hr at 4° C., washed three times with HBH buffer, fixed with formaldehyde, and after washing again with HBH the neurons were incubated in a 67° C. oven to inactivate the endogenous AP. The tagged AP was then visualized using AP substrate 5-bromo-4-chloro-3-indolyl phosphate/nitro blue tetrazolium, which results in a dark precipitate. […] The addition of 100 nM Flag-PGRN displaced 10 nM AP-PGRN (FIG. 1C, middle panel).

[2] = test system: mouse E17 cortical neurons; assay: AP-PGRN binding to mouse cortical neurons (wild type, sortilin +/- and -/-); details: 100 nM unlabeled competitor against 5 nM AP-PGRN, 1 hr preincubation
Procedure: as §1
Binding was measured according to the methods described above by preincubating 100 nM PGRN with the cortical neurons for 1 hr and using a 5 nM AP-PGRN and 100 nM untagged PGRN mixture. […]
Gene-targeted sortilin −/− and +/− mice from Anders Nykjaer, M.D., Ph.D., Aarhus University, Aarhus, Denmark, were used to obtain cultures of cortical neurons. The binding of 2 nM AP-PGRN to cortical neurons isolated from sortilin −/− (FIG. 3B, left panel) and +/− (FIG. 3B, right panel) mice was evaluated. […]

[3] = biological target: T1, sortilin-1 (Sort1; PGRN-R); assay: AP-PGRN binding to COS-7 cells transfected with Sort1 cDNA
Procedure: as §1
To determine the molecular nature of the neuronal binding site of PGRN, expression cloning experiments utilizing AP-PGRN as a tagged ligand were conducted. COS-7 (ATCC No. CRL-1651) cells were transfected with expression vectors containing mouse cDNAs using FUGENE® 6 according to manufacturer's specifications (Roche). […]

[4] = test system: cortical neurons from E18 rat embryo cerebral cortex; assay: Apoptosis assay (cleaved caspase 3) in cortical neuron cultures; assay type: cell-based; details: 100 nM, 36 hours, vs vehicle; 7 days in vitro
Procedure: In order to examine the PGRN-Sort1 interaction and the effects of PGRN on cerebral cortical cultures, apoptosis assays were performed. Cultures of cortical neurons were established from E18 rat embryo cerebral cortex, as described above, and maintained for 7 days in vitro. Then, the cells were exposed to vehicle or 100 nM purified PGRN protein for 36 hours. The cultures were maintained as mentioned above, and Flag-PGRN diluted in PBS or PBS vehicle were incubated in the cultures for 36 h. Thereafter, the cells were fixed with FA 15 mts and stained with anti-cleaved caspase 3 antibody (Cell Signaling) to detect apoptotic cells (FIG. 6A; shown in white) and with DAPI to detect all nuclei (FIG. 6A; shown in gray). […] These finding may relate indirectly to one study of immortalized cells linking PGRN to caspase-mediated cleavage of TDP43 (Zhang, Y. J., et al., J. Neurosci. 27:10530-10534 (2007)).

[5] = test system: Cortical neurons isolated from E18 rat embryos; assay: Neurite outgrowth assay in cortical neurons; assay type: cell-based; details: 100 nM, 1 day in vitro, vs vehicle
Procedure: To further examine the PGRN-Sort1 interaction, neurite outgrowth assays were performed. Cortical neurons were isolated from E18 rat embryos and cultured for 1 day in vitro with or without 100 nM purified Flag-PGRN protein, as described above. Neurites were then visualized with an anti-Beta III tubulin (Promega) using an automated image acquisition. Neurite outgrowth analysis was done using ImageXpress (Molecular Devices), and average neurite length was calculated. […] Although this finding differs from a recent report (Van Damme, P., et al., J. Cell Biol. 181:37-41 (2008)), it is possible that cell survival is the primary action of PGRN, and any outgrowth effect is secondary.

sortilin = biological target: T2, sortilin; assay: PGRN binding to sortilin of human origin; details: data not shown
Source text: The human SorLA expression vector was provided by Anders Nykjaer, M.D., Ph.D., Aarhus University, Aarhus, Denmark (Jacobsen, L., et al., J. Biol. Chem. 276:22788-22796 (2001); Gliemann, J., et al., Biochem J. 381:203-212 (2004); GenBank Accession No. U60975), and the mouse SorCS1 expression vector in pCMV-Sport6 was obtained from Open Biosystems (GenBank Accession No. BC007486). […] A fragment of PGRN, termed PGRN-E in the literature, binds to sortilin with the same affinity as does full length PGRN (data not shown).

Sort1 = biological target: T3, Sort1; assay: Affinity chromatography pull-down of Sort1 from brain lysate; assay type: binding; details: wild type brain lysate or extract
Procedure: For affinity chromatography, glutathione S-transferase (GST) fused to the C-terminal segment of PGRN (amino acids 495 to the end) was produced in E. coli as a 45 kDa protein and then purified on glutathione-sepharose resin. Brain lysate was prepared from mouse brain by homogenization in RIPA buffer and then incubated with the GST-PGRN containing resin. After washing, bound protein was eluted with SDS and analyzed by anti-sortilin immunoblot. […] Thus, it can be unexpectedly concluded from these studies that PGRN and sortilin interact in a ligand/receptor-type complex on the cell surface.

Kd [1]	displacement of AP-PGRN binding [2]	displacement of AP-PGRN binding ([3]; 100 nM untagged competitor against 5 nM AP-PGRN)	binding to sortilin of mouse origin ([3]; data not shown)	binding to sortilin of human origin (sortilin)	pull-down of Sort1 (anti-sortilin immunoblot) (Sort1)	Molecule	number of cells positive for cleaved caspase-3 [4]	cortical neurite outgrowth (βIII tubulin) [5]
~20 nM	displaced	displaceable	binds	binds		PGRN: progranulin protein; unlabeled/untagged competitor in binding assays, purified Flag-PGRN in Example 2 cultures (protein) TQCPDGQFCPVACCLDQGGANYSCCNPLLDTWPRITSHHLDGSCQTHGHCPAGYSCLLTVSGTSSCCPFSKGVSCGDGYHCCPQGFHCSADGKSCFQMSDNPLGAVQCPGSQFECPDSATCCIMVDGSWGCCPMPQASCCEDRVHCCPHGASCDLVHTRCVSPTGTHTLLKKFPAQKTNRAVSLPFSVVCPDAKTQCPDDSTCCELPTGKYGCCPMPNAICCSDHLHCCPQDTVCDLIQSKCLSKNYTTDLLTKLPGYPVKEVKCDMEVSCPEGYTCCRLNTGAWGCCPFAKAVCCEDHIHCCPAGFQCHTEKGTCEMGILQVPWMKKVIAPLRLPDPQILKSDTPCDDFTRCPTNNTCCKLNSGDWGCCPIPEAVCCSDNQHCCPQGFTCLAQGYCQKGDTMVAGLEKIPARQTTPLQIGDIGCDQHTSCPVGQTCCPSLKGSWACCQLPHAVCCEDRQHCCPAGYTCNVKARTCEKDVDFIQPPVLLTLGPKVGNVECGEGHFCHDNQTCCKDSAGVWACCPYLKGVCCRDGRHCCPGGFHCSARGTKCLRKKIPRWDMFLRDPVPRPLL	less	No PGRN-induced change; also recorded: no significant difference
					immunoreactive Sort1 band was detected	GST-PGRN: glutathione S-transferase (GST) fused to the C-terminal segment of PGRN (amino acids 495 to the end), produced in E. coli (protein, left off: a dimerising Fc or GST, glutathione S-transferase (GST) fused to the C-terminal segment of PGRN (amino acids 495 to the end), produced in E. coli) CEKEVVSAQPATFLARSPHVGVKDVECGEGHFCHDNQTCCRDNRQGWACCPYRQGVCCADRRHCCPAGFRCAARGTKCLRREAPRWDAPLRDPALRQLL		
